According to publication PMC10667097 (2023):

Molecular target: GST RBX1–CUL1–NEDD8 (human, UniProt Q13616 1-776; P62877 5-108; Q15843 1-76, NEDD8 linked to a specific site in the WHB subdomain | C-terminus linked to the cullin (isopeptide))
Test: BLI

Chain of GST RBX1–CUL1–NEDD8 (Q13616 whole entry, chain 1 of 3): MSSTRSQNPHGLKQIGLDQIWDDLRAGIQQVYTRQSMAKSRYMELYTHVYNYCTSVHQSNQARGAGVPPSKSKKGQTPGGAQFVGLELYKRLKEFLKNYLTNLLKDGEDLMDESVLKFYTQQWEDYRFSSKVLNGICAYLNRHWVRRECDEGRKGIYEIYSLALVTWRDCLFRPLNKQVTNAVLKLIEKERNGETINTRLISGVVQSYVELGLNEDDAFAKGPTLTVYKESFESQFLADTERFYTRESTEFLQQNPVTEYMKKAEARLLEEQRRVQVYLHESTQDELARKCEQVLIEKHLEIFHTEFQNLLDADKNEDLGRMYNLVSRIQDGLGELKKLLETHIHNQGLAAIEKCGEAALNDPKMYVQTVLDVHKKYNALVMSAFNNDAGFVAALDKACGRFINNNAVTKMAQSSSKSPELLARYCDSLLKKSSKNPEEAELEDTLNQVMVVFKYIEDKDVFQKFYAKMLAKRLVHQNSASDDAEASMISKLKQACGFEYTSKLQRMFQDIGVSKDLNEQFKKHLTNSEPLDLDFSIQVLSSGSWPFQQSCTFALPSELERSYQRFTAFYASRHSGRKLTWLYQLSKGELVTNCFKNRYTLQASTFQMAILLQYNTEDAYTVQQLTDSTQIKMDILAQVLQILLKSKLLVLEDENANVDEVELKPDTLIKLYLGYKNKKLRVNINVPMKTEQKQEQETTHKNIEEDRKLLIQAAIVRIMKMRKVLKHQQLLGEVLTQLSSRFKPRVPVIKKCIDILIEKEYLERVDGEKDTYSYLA
Chain of GST RBX1–CUL1–NEDD8 (P62877 5-108, chain 2 of 3): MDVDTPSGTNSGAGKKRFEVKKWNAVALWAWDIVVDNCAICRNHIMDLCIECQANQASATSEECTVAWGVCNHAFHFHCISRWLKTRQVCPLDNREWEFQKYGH
Chain of GST RBX1–CUL1–NEDD8 (Q15843 1-76, chain 3 of 3): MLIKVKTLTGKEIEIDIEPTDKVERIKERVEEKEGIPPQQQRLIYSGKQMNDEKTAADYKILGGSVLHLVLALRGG

Kd: 1.27 nM
B1: N8C_Fab3b (Fab, V domains shown)
VH: EVQLVESGGGLVQPGGSLRLSCAASGFNFSSSSIHWVRQAPGKGLEWVASISSSYGYTYYADSVKGRFTISADTSKNTAYLQMNSLRAEDTAVYYCARDPFGWAAHGVGLDYWGQGTLVTVSS
VL: DIQMTQSPSSLSASVGDRVTITCRASQSVSSAVAWYQQKPGKAPKLLIYSASSLYSGVPSRFSGSRSGTDFTLTISSLQPEDFATYYCQQSSYSLITFGQGTKVEIK
